We go through one molecule from patent publication US20090155176A1 (Novartis, published 2009).

In the experiment the target is T1, β2 construct alone (mock) expressed in 293 cells (UniProt P05107 23-769).
T1 construct: whole, on cells; Negative control transfectant; also called mock (β2) transfected cells
In words: adhesion of transfected 293 cells to plate-bound ICAM-1-Ig.

T1 sequence (P05107 23-769): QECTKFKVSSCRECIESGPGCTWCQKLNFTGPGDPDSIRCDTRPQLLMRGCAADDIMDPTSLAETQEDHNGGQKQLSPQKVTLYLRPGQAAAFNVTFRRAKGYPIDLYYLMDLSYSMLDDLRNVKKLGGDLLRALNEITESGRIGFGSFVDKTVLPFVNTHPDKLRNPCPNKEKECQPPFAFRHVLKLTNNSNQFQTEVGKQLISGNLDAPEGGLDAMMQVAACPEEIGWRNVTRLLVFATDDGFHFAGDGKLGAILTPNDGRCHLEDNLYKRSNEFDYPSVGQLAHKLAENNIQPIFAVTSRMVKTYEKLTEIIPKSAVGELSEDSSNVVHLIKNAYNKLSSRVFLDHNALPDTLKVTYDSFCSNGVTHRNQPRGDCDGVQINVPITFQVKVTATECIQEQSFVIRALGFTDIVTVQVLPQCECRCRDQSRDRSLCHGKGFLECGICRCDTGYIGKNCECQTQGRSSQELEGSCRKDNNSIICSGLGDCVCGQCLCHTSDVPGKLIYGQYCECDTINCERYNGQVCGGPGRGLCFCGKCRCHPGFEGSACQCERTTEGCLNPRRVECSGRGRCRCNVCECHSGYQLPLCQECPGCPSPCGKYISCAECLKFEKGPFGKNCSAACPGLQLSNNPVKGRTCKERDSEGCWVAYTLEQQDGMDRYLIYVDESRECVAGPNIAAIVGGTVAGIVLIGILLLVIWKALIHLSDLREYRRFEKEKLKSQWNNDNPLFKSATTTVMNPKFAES

B1: ICAM-1-Ig (Fc fusion, UniProt P05362 28-480, looked up)
chain: QTSVSPSKVILPRGGSVLVTCSTSCDQPKLLGIETPLPKKELLLPGNNRKVYELSNVQEDSQPMCYSNCPDGQSTAKTFLTVYWTPERVELAPLPSWQPVGKNLTLRCQVEGGAPRANLTVVLLRGEKELKREPAVGEPAEVTTTVLVRRDHHGANFSCRTELDLRPQGLELFENTSAPYQLQTFVLPATPPQLVSPRVLEVDTQGTVVCSLDGLFPVSEAQVHLALGDQRLNPTVTYGNDSFSAKASVSVTAEDEGTQRLTCAVILGNQSQETLQTVTIYSFPAPNVILTKPEVSEGTEVTVKCEAHPRAKVTLNGVPAQPLGPRAQLLLKATPEDNGRSFSCSATLEVAGQLIHKNQTRELRVLYGPRLDERDCPGNWTWPENSQQTPMCQAWGNPLPELKCLKDGTFPLPIGESVTVTRDLEGTYLCRARSTQGEVTRKVTVNVLSPRYE
notes: not shown: Ig portion
Consider B1, for which the binding result is “no binding”.
